Measurements as given in the DeepSol protein solubility set.

Experiment: soluble on expression in E. coli; label from the status in PepcDB or PDB records

Sequence	soluble on expression in E. coli
GSARPKLRVVTLVEHPFVFTRESDEDGQCPAGQLCLDPGTNDSARLDALFAALVNGSVPRTLRRCCYGYCIDLLERLAEDLAFDFELYIVGDGKYGALRDGRWTGLVGDLLAGRAHMAVTSFSINSARSQVVDFTSPFFSTSLGIMVRTRGTELSGIHDPKLHHPSQGFRFGTVWESSAEAYIKASFPEMHAHMRRHSAPTTPHGVAMLTSDPPKLNAFIMDKSLLDYEVSIDADCKLLTVGKPFAIEGYGIGLPQNSPLTSNLSEFISRYKSSGFIDLLHDKWYKMVPCGK	soluble
MGSDKIHHHHHHMKKWLVLGVAAVAFFSYENTPMEQAEADYPKSGGTLIDRYTSEYPGYDWEVRRTATEEFVALTKDGKDYGKYRSKNGVTTQGAVLNKDTETTLAKKGWKAVKSYRKGNTNYLLNLDHAAVYEKKDRYVTYFFDQHDGNKVKATLAIPKEVEAKKSGFYGKASSALRTTDEKLMLRLMNWDRADYNLGALTPYSPLKPVTRAHSENMAKNNFFSHTDPERRDPFDRMKENGIRFSAAGENLSMGYPNVFAAHWGLMNSKGHRDNIMNKTFEQADTGVAFRDNAPYFTINFRTP	not soluble
MKLTDSVLRSFRVAKVFRENSDKINCFDFSSNGETVISSSDDDSIVLYDCQEGKPKRTLYSKKYGVDLIRYTHAANTVVYSSNKIDDTIRYLSLHDNKYIRYFPGHNKRVVALSMSPVDDTFISGSLDKTIRLWDLRSPNCQGLMHLQGKPVCSFDPEGLIFAAGVNSEMVKLYDLRSFDKGPFATFKLQYERTCEWTGLKFSNDGKLILVSTNGGTLRVLDAFKGAVLHSFGGYNNSKGVILEAPFTPDSQFIMIGSEDGKIHVWNAESGMKVALLDGKHTGPVTCLQFNPKFMTFASACSNMAFWLPTIDD	not soluble
MKIRESTGKTSSLREVPGQEPRRVADSSGSSFKRHLKEFDHRNHEERIRALVSQIEEQGRKLSQKIDVAELKVYKRLISDFLDEVLHHSHIFSKDSHLDRRGRYKVYATVKKINEELDELTKEVLNAEKDNIRILQRIEDIRGLVLDLML	soluble
MQVIPLKPLDNKTLEEIGLDWHTNDDMSSYIADEMVVVSQKEADAYYDACNELYDMFVETAEEAIQNDRFFELDIPNALIPMIKQSFEEEVHWHIYGRFDLAGGLDGKPIKLLEFNADTPTMLYETAVIQWALLKANGYDENKQFNNLYEALGENFKRMVTLGEDTSRFEEMYEGWKILFSSVRGNIEEERTMRFLQDAAQSVGFETDFSYIDEVEFNIEEGVFKNGLNYEFLFKLIPWENIAIDEPELALLMQGMMENKNTIFLNPAYTILFQSKRFLKLLWDRYPNHPLLLETSYEPLANKKQIKKVAFGREGANSEIFEASMQSLLKTDGVYSNHKPVYQEFYELNSHNGLYYQPNVFFAYESCALGFRKGGLILDNFSKFVSHRLQ	not soluble
MKVGQDKVVTIRYTLQVEGEVLDQGELSYLHGHRNLIPGLEEALEGREEGEAFQAHVPAEKAYGPHDPEGVQVVPLSAFPEDAEVVPGAQFYAQDMEGNPMPLTVVAVEGEEVTVDFNHPLAGKDLDFQVEVVKVREATPEELLHGHAHPSGHHHHHH	soluble
MSLREDLLEETRKSCQKKIDELEDALSELKKETSQKDHHIKQLEEDNNSNIEWYQNKIEALKKDYESVITSVDSKQTDIEKLQYKVKSLEKEIEEDKIRLHTYNVMDETINDDSLRKELEKSKINLTDAYSQIKEYKDLYETTSQSLQQTNSKLDESFKDFTNQIKNLTDEKTSLEDKISLLKEQMFNLNNELDLQKKGMEKEKADFKKRISILQNNNKEVEAVKSEYESKLSKIQNDLDQQTIYANTAQNNYEQELQKHADVSKTISELREQLHTYKGQVKTLNLSRDQLENALKENEKSWSSQKESLLEQLDLSNSRIEDLSSQNKLLYDQIQIYTAADKEVNNSTNGPGLNNILITLRRERDILDTKVTVAERDAKMLRQKISLMDVELQDARTKLDNSRVEKENHSSIIQQHDDIMEKLNQLNLLRESNITLRNELENNNNKKKELQSELDKLKQNVAPIESELTALKYSMQEKEQELKLAKEEVHRWKKRSQDILEKHEQLSSSDYEKLESEIENLKEELENKERQGAEAEEKFNRLRRQAQERLKTSKLSQDSLTEQVNSLRDAKNVLENSLSEANARIEELQNAKVAQGNNQLEAIRKLQEDAEKASRELQAKLEESTTSYESTINGLNEEITTLKEEIEKQRQIQQQLQATSANEQNDLSNIVESMKKSFEEDKIKFIKEKTQEVNEKILEAQERLNQPSNINMEEIKKKWESEHEQEVSQKIREAEEALKKRIRLPTEEKINKIIERKKEELEKEFEEKVEERIKSMEQSGEIDVVLRKQLEAKVQEKQKELENEYNKKLQEELKDVPHSSHISDDERDKLRAEIESRLREEFNNELQAIKKKSFDEGKQQAMMKTTLLERKLAKMESQLSETKQSAESPPKSVNNVQNPLLGLPRKIEENSNSPFNPLLSGEKLLKLNSKSSSGGFNPFTSPSPNKHLQNDNDKRESLANKTDPPTHLEPSFNIPASREGHHHHHH	soluble
MGSYLSVPAYFTSRDLFRCSECQDSLTNWYYEKDGKLYCPKDYWGKFGEFCHGCSLLMTGPFMVAGEFKYHPECFACMSCKVIIEDGDAYALVQHATLYCGKCHNEVVLAPMFERLSTESVQEQLPYSVTLISMPATTEGRRGFSVSVESACSNYATTVQVKEVNRMHISPNNRNAIHPGDRILEINGTPVRTLRVEEVEDAISQTSQTLQLLIEHDPVSQRLDQLRLEARLAPHMQNAGHPHALSTLDTKENLEGTLRRRSLRRSNSISKSPGPSSPKEPLLFSRDISRSESLRCSSSYSQQIFRPCDLIHGEVLGKGFFGQAIKVTHKATGKVMVMKELIRCDEETQKTFLTEVKVMRSLDHPNVLKFIGVLYKDKKLNLLTEYIEGGTLKDFLRSMDPFPWQQKVRFAKGIASGMAYLHSMCIIHRDLNSHNCLIKLDKTVVVADFGLSRLIVEERKRAPMEKATTKKRTLRKNDRKKRYTVVGNPYWMAPEMLNGKSYDETVDIFSFGIVLCEIIGQVYADPDCLPRTLDFGLNVKLFWEKFVPTDCPPAFFPLAAICCRLEPESRAPPGAAGEGPGCADDEGPVRRQGKVTIKYDPKELRKHLNLEEWILEQLTRLYDCQEEEISELEIDVDELLDMESDDAWASRVKELLVDCYKPTEAFISGLLDKIRAMQKLSTPQKK	soluble
MSLQAAGNAPAKISMLLTDGAIGQITKPFPEGGPSAKEVWERETGIEIDIVGAPAEDIFKKVMQDVTTGGGTFDIYTGPWNSTGDLVSSGGAVNCSDFVAKYQPDWADPERGTPTPEMEKLLYTYAGDYYSFSLDGDFQTWFYLKGLYEDPRVQDAFLSETGVALKTPDTWEEVDRISKFFTGKDFGNGPMYGNGNLMSPFWGLATFYARFASMDFPNYHFFDEDGNPNLNSDLGIQCAEEHVRSFEWCPPDALTFTWAEAYATMWNLQIPHTAIYTNLVKFGDGYNADGTPKSKATGMIGSHLPVGRRFGDQLNRRSVLYYHITAWISSQSQHPEAVYLFLQWLSSTRTYTWMAGNPGGYFDPMQQANFKEPLVASTYHPYAMETIPQTIARSVPSINFAGQTALDNALDEEIQAAITGQKSAREAMDAAQSKWERIIKRQEGHHHHHH	not soluble
MSKDIRTVRPPVQLLPKAIIAVRPASTAKADLEVMAAQVAQLTTACCQENIQVDSIIITFGGIKDITKRVKQLTEQKDISYLIIYSGKQIAENESEYVNFKRDMQDWYYLKVVCYR	not soluble
GPGSMQKSKRHGMHMDFNPLEHCNAPMDSVVGYSSDVPSMSNCHRHWLSETYAYTTIGYPHEVMKKMPYGSEWKRAPTGLCWTADEFVARYLLHTRGIFVYFGGSRHDLYWENLKFFGSSGMHRLYERINFENKVEVTTTKRRKRHTPLVGDVVVWDSDYKAYFPRGHVAVVVKVEDDVSAAGGEAALRELKKERRQPSLVYIAEQNFDNKNWEGRNFSRVLKFTWMRGDRASLEDPDGPPLMGHVRVGKLLEDASFFGDL	not soluble
MGRNDSEFPSDEELKKLAGKIKGAAIRANTKILKSYDPDTYGNYLDQLDGIRSQAEWLGTAFDDFLKPSPWDFDDMLKALDEIASDLGQAVGETEIKNGIVQGRIDTTKQFLGEGGWKGALADSFKMDYLEPIGSHIAANQGAVTLVTHDGLQAMRDIYGKARENLKDLGEKAVTAFEQADGISASDLKTLLTVLSAAFGLGTAVLSAFAPAAAAGAGIASALVSGGIAVGSDKVGEDEESELAADYPDKVEENFKNALEKLKEQITTMEDELIKVLQKGTSDIASIVWGEKLDRLNGFSALFGMGNQSLLAPKVPDLSMVAFGDDPGKLKDGLVQVSG	not soluble
MAYKYDRDLEFLKQLESSDLLDLFEVLVFGKDGEKRHNEKLTSSIEYKRHGDDYAKYAERIAEELQYYGSNSFASFIKGEGVLYKEILCDVCDKLKVNYNKKTETTLIEQNMLSKILERSLEEMDDEEVKEMCDELSIKNTDNLNRQALSAATLTLFKMGGFKSYQLAVIVANAVAKTILGRGLSLAGNQVLTRTLSFLTGPVGWIITGVWTAIDIAGPAYRVTIPACIVVATLRLKTQQANGDKKSLQIESI	not soluble
GQDRSPIETQNVETVLRLFDEGWGAQDGWRDVWRETMTPGFRSIFHSNQAVEGIEQAIAFNAVLFEGFPRLEVVVENVTVEGDNVVVQARLTGAQDGPFLGVPPSGQMVDVPDVTLFTLADGQVIEMRYFTDLLAVMTAISAPPEN	soluble
MSLNPKAKFAVIDDLETSRLHISHILQEDGFTVDLFDSATQFLLMKDEILDYAGLIIDIHMPGYNGYELAETIHAMFGTSAPPFIFISASPESIRHDRFNTEHMWQGFAKPMDKNRFIDSIRVLSDKSSLKTEAFEPASVLLVEDEPINAEVVKTMLERNGHTVEVATTGAAALHLATTVPFNLILMDINLPDMSGIETTRCIKAQGVDTEIVALTGNAYEEDKLKTKEAGMSYHLVKPVMYHELNNVIKLALRVAHEGHHHHHH	soluble
MSHSIEQLSINTIRTLSIDAIEKANSGHPGMPMGAAPMAYTLWTQFMKHNPNNPTWFNRDRFVLSAGHGSMLLYSLLHLSGYDVTMDDLKNFRQWGSKTPGHPEYGHTAGVDATTGPLGQGIATAVGMAMAERHLAAKYNRDAYNIVDHYTYAICGDGDLMEGVSAEASSLAAHLQLGRLVVLYDSNDISLDGDLNRSFSESVEDRYKAYGWQVIRVEDGNDIEAIAKAIEEAKADEKRPTLIEVRTTIGFGSPNKSGKSASHGSPLGVEETKLTKEAYAWTAEQDFHVAEEVYENFRKTVQDVGETAQAEWNTMLGEYAQAYPELANELQAAMNGLLPEGWEQNLPTYELGSKAATRNSSGAVINAIAESVPSFFGGSADLAGSNKTYMNNEKDFTRDDYSGKNIWYGVREFAMGAAMNGIALHGGLKTYGGTFFVFSDYLRPAIRLAALMQLPVTYVFTHDSIAVGEDGPTHEPIEQLAALRAMPNVSVIRPADGNESVAAWRLALESTNKPTALVLTRQDLPTLEGAKDDTYEKVAKGAYVVSASKKETADVILLATGSEVSLAVEAQKALAVDGVDASVVSMPSMDRFEAQTAEYKESVLPKAVTKRFAIEMGATFGWHRYVGLEGDVLGIDTFGASAPGEKIMEEYGFTVENVVRKVKEML	not soluble
MGSDKIHHHHHHMWITINRNSNISLSRQIYCEIKDMILDGSLKFEQKLPSSRTLSKELSVSRNTVLDAYNQLIAEGYLETRNGYGTIVAKGISGHKVDFKLNDTFRDEKDLHTNKQKNYIDFRSGVPELKLFPRKELSKLYKQILYDLSDSDFRYGSTAGVWVLRVEISKYLFRTRGIRCNPKNIMIVSGSTQGLSLISQLLYKSNKKVAVEDPIHKGLLKVISSIGYSVVGIKVDDKGMNTNLIKSIKGISFVYTTPSHQYPLGGILPIQRRLELIKCATENDYYIIEDDYDSEFRYEGQPISSLYELSPNKVIYIGSFSKILSPAIRVGFMLLPDNILESYKTLKMYSDVHTETILQHVLAEFIGNGGLEKYIFRMKKLYNRKRKYLIKVLNTEFKNEFKIKGEAAGLHIVAHFYNVKFTESLIHKIFEAGIKVYPIQQYAIENILEYDHEIILGYAHLSFDEIEKGVKILSKIIHMNQGT	not soluble
